How the values were obtained:
[1] = biological target: the molecule itself; assay: AUC; sedimentation velocity of purified Atg11-His6, analysed with SEDFIT; also at 1.63 mg/ml and 0.15 mg/ml
[2] = biological target: T1, Atg9^core reconstituted in proteoliposomes (yeast, UniProt Q12142 281-779); assay: co-floatation with proteoliposomes; Atg9-PLs mixed with one interaction partner in a Nycodenz step gradient, ultracentrifugation, floated fraction on SDS-PAGE; SUVs lacking Atg9^core as control; conditions: both partners purified
T1 construct: Atg9 core, yeast; Liposomes: 20 mol% cholesterol, 10 mol% POPE, 60 mol% POPC, 10 mol% POPS; protein:lipid 1:200; also called Atg9-PLs; Atg9 vesicles; source: reconstituted in liposomes by rapid dilution
T1 sequence (looked up): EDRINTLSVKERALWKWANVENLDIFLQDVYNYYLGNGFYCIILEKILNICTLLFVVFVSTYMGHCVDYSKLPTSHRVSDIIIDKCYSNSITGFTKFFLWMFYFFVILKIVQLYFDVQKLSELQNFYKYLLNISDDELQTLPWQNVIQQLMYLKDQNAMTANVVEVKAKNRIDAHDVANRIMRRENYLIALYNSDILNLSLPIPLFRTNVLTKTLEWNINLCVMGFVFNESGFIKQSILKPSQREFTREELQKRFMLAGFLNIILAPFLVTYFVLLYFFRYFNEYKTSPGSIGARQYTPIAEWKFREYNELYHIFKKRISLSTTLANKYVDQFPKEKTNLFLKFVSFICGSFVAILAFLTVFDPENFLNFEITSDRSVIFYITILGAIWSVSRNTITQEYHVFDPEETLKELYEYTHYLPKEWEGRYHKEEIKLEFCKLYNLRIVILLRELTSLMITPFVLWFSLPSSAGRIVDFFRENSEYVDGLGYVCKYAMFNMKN

stoichiometry N [2]: 1
B1: recombinant purified Atg11 (Atg11-His6) (natural protein, yeast)
chain: GPMADADEYSTAPTQQEITPLQTTATIINAISGECITTNVDFFVSLDKFKQFIARKWKIPPDQLLILLPYGNKLKPSMFKELLINRSFTLNDFYVYDRRLFSLVSKPTPTNLLTSKDSNPMNSPNSNDLTETLEYLIKNSHISQYQGSDTIMIKPMPSPLEDADVDLSRLNYHSVTSLLTTNLGWLSALEIDVHYFKSLIPDIIAHIKRIFDGLTVCSQYLKLYCFDVESLYNSNVQFLNQLVDNGMTSKWEKCFNDTLSKLTALEGDSLQKFINIESLLENEKSVKILNHSINGKLNKIKREIDENASFRDIITVNIDRLRQMFTPNESKFELEDQMAESFEVLVSEMRTRSRNVLDKEEEEFNSQEFLKSMNVMLEKDKKESVKTLFTISQALYSQIGELIDLKKSLQKHAVAILGNIAFTQMEILGIKRLLLNECNKDLELYKKYEVEFAQVEDLPLIYGLYLIEKYRRLSWFQQILSFISNFNQDLELFKQNELRTRNKWVKNFGSIATVFCEDLLSSSDFKRLNEYHSHTSPPNEDEEDENENSIANYRQDLVKVSQAIDNYMTQIKETDVSEPIIDLLSKTLFETKRFHIIYSNFKNNNNNSSNGNSISPEGSIALKSDDVVKGYKTRIKKLESLLHEFQYSDIGHWPQGVLNTHLKPFRGSATSINKKKFLGASVLLEPANISEVNIDSVSQANNHQIQELESNVDDLLHQLQLLKEENNRKSMQISEMGKKISDLEVEKTAYRETLTNLNQELARLTNEEQSHRTEIFTLNASFKKQLNDIISQDNEKIEKLTGDYDDVSKSRERLQMDLDESNKKHEQEVNLLKADIERLGKQIVTSEKSYAETNSSSMEKGEKFETIPLAEDPGRENQISAYTQTLQDRIFDIISTNIFILENIGLLLTFDNNNNIQIRRVKGLKKGTAQSNILDESTQMLDAHDNSLIKSPVFQKLKDEYELIKSVANGSEKDTQQSIFLGNITQLYDNKLYEVAVIRRFKDIETLAKKLTKENKIKRTLLERFQREKVTLRNFQIGDLALFLPTRENVNSVGSMSSSTSSLSSSFSSVDLSTPPPLDAMSIQSSPSVIHSNVINQASISGRDKNKLMRPWAAFTAFEESTRYFLKDEKGLTKGKEWFVGRIVTLEHFVADSPSNNPFRLPKGSVWFQVTAVVVSYQGV
modifications: Atto565 label in the GUV experiments
notes: N-terminal residual glycine-proline from PreScission protease digestion; Atg11, yeast; expressed from pCoofy37-Atg11; measured molecular weight 136 kDa; also called His-tagged Atg11; Atg11^Atto565; source: E. coli BL21 (DE3), coexpressed with chaperones from pG-KJE8, purified (Ni-NTA, PreScission digestion, gel filtration); not shown: His6, C-terminal, kept
stoichiometry N [1]: 2
